In this assay the target is casein fraction of whole cow milk. The assay can be described thus: competitive inhibition RIA of bLF in the casein pellet after centrifugation of whole cow milk, no addition (mean + SD, n=10); the same table gives 4 with +0.4M NaCl and 32 after acid precipitation.

Regarding “bovine lactoferrin (from UniProt P24627)”, the % of total bLF found in the casein fraction was 21%.

For the origin of these results see US5849885.
